T1: Purified CEA (Biodesign International) (UniProt P06731 35-685)
T1 construct: Bought purified antigen, immobilized on 96-well plates at 5 ug/ml; also called carcinoembryonic antigen; target protein CEA
T1 sequence: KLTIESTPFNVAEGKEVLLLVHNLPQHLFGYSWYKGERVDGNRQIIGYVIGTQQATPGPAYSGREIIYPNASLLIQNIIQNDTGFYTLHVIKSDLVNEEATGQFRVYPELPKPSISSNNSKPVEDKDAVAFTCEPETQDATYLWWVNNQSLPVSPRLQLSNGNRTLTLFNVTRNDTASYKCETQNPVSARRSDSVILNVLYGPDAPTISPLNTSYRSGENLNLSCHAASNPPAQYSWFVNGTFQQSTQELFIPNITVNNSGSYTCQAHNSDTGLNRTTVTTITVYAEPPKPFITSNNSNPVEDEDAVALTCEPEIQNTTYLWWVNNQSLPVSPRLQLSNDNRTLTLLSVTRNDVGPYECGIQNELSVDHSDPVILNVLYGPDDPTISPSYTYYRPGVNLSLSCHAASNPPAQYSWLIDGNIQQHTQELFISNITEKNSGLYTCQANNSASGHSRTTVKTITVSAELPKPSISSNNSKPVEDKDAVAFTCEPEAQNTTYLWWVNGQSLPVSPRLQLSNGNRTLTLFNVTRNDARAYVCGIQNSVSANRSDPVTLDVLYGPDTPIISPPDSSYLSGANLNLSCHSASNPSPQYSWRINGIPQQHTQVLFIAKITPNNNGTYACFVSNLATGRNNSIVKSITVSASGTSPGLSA

B1: CAB1.11 molecule (scFv)
chain: DIVLTQSPASLSVSLGQRATMSCRAGESVDIFGVGFLHWYQQKPGQPPKLLIYRASNLESGIPVRFSGTGSGTDFTLIIDPVEADDVATYYCQQTNEDPYTFGGGTKLEIKGGGGSGGGGSGGGGSGGGGSGGGGSGGGGSEVQLQQSGAELVEPGASVKLSCTASGFNIKDTYMHWVKQRPEQGLEWIGRIDPANGNSKYVPKFQGKATITADTSSNTAYLQLTSLTSEDTAVYYCAPFGYYVSDYAMAYWGQGTSVTVSSTPVSEKQLAEVVANTITPLMKAQSVPGMAVAVIYQGKPHYYTFGKADIAANKPVTPQTLFELGSISKTFTGVLGGDAIARGEISLDDAVTRYWPQLTGKQWQGIRMLDLATYTAGGLPLQVPDEVTDNASLLRFYQNWQPQWKPGTTRLYANASIGLFGALAVKPSGMPYEQAMTTRVLKPLKLDHTWINVPKAEEAHYAWGYRDGKAVRVSPGMLDAQAYGVKTNVQDMANWVMANMAPENVADASLKQGIALAQSRYWRIGSMYQGLGWEMLNWPVEANTVVETSFGNVALAPLPVAEVNPPAPPVKASWVHKTGSTGGFGSYVAFIPEKQIGIVMLANTSYPNPARVEAAYHILEALQ
notes: scFv-BLA fusion; also called HR14.8; clone HR14.8
B2: CAB1.11i molecule (scFv)
chain: DIVLTQSPASLSVSLGQRATMSCRAGESVDIFGVGFLHWYQQKPGQPPKLLIYRASNLESGIPVRFSGTGSGTDFTLIIDPVEADDVATYYCQQTNEDPYTFGGGTKLEIKGGGGSGGGGSGGGGSGGGGSGGGGSGGGGSEVQLQQSGAELVEPGASVKLSCTASGFNIKDTYMHWVKQRPEQGLEWIGRIDPANGNSKYVPKFQGKATITADTSSNTAYLQLTSLTSEDTAVYYCAPFGYYVSDYAMAYWGQGTSVTVSSTPVSEKQLAEVVANTITPLMAAQSVPGMAVAVIYQGKPHYYTFGKADIAANKPVTPQTLFELGSISKTFTGVLGGDAIARGEISLDDAVTRYWPQLTGKQWQGIRMLDLATYTAGGLPLQVPDEVTDNASLLRFYQNWQPQWKPGTTRLYANASIGLFGALAVKPSGMPYEQAMTTRVLKPLKLDHTWINVPKAEEAHYAWGYRDGKAVRVSPGMLDAQAYGVKTNVQDMANWVMANMAPENVADASLKQGIALAQSRYWRIGSMYQGLGWEMLNWPVEANTVVETSFGNVALAPLPVAEVNPPAPPVKASWVHKTGSTGGFGAYVAFIPEKQIGIVMLANTSYPNPARVEAAYHILEALQ
notes: Single-chain fusion of a T84.66-derived anti-CEA scFv (vL-(GGGGS)6-vH) to deimmunized beta-lactamase (BLA); also called encoded by plasmid pHR19.2

Assays:
[1] = target: T1, Purified CEA (Biodesign International); assay: plate assay: CEA immobilized at 5 ug/ml, serially diluted B-Per extract, bound CAB read by nitrocefin hydrolysis at 490 nm
[2] = target: T1, Purified CEA (Biodesign International); assay: plate assay: purified CEA immobilized at 5 ug/ml, 2-fold dilutions of purified CAB1.11i, bound BLA activity read with nitrocefin at 490 nm

Row | Binder | binding result [1] | binding result [2]
1 | B1 | binds | 
2 | B2 |  | binds
